The data set deals with the molecule itself. Briefly: non-reducing SDS-PAGE (intersubunit disulfide bond assay); purified StrepII-tagged protein dialysed overnight in 100 mM Tris-Cl pH 7.5, 2 M NaCl; no reducing reagent; diluted 1:1 in SDS-loading buffer, boiled 10 min, 16% SDS-PAGE, Coomassie stain; shows only covalently (disulfide) linked subunits.

The source of these data is paper PMC9426492, “TrmB Family Transcription Factor as a Thiol-Based Regulator of Oxidative Stress Response” (mBio, 2022).

B1: OxsR (HVO_2970) wild type with a C-terminal StrepII tag (natural protein, Haloferax volcanii, UniProt D4GY41 1-123, looked up)
chain: MADAPDMGELMETEDPNFGQVLACVFGIQSHESRTYLALLDNPGSTVAELAEVLDRDRSNVNRSLTTLLDKGLTERKRRLLDPGGYVYQYTATPLPEAKEMMHAALDEWAEDVHARIDAFGES
notes: 123 aa, 14 kDa; UniProtKB D4GY41; also called OxsR-StrepII; OxsR wt; source: H. volcanii SH125 (H26 ΔoxsR) carrying pJAM4019, purified (Strep-Tactin Superflow Plus resin, 2 M NaCl buffers); not shown: StrepII, C-terminal, kept
For B1, the binding result is listed as “binds”.
